Experimental data taken from the supplement of paper PMC10567573.

B1: FAM164C (parent)
chain: YPHCTGISQQDPESDSQGQGNGLF

Variants of: B1
Assay: protein stability index of a GFP-peptide fusion (GPS, HEK-293T) (PSI 1-6); higher = more stable
Details: c terminus: a fixed tail appended
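Also: lentivirally expressed fusions sorted by FACS into six bins by GFP to DsRed ratio, PSI derived from sequencing read proportions per bin multiplied by bin number.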

Protein stability index, by site and new letter:
Q9: M 3.49, A 4.06, R 3.68, H 3.58, L 2.98, Y 3.11, G 3.85, P 3.67, E 3.89, N 3.5, S 3.97, K 3.42, F 3.05, C 3.43
G18: M 3.19, Q 3.72, F 2.54, L 3.42, R 3.83, S 3.77, K 3.5, D 3.67, C 3.9, W 2.62, I 3.32, A 3.83
Q17: G 3.74, N 4.14, I 3.42, W 2.97, D 3.26, A 3.88, K 3.51, Y 3.02, E 4.4, P 3.6, M 3.8, L 2.96, H 3.36, C 3.39, S 3.79, T 3.64, V 3.4
E13: W 1.9, I 3.21, Y 2.97, V 3.66, L 2.81, C 3.34, R 2.93, K 3.28, S 3.08, Q 3.31, H 3.4, G 3.38, A 3.46, F 2.44
C4: F 3.58, W 2.75, Q 4.53, D 5.02, M 4.36, K 4.39, H 4.24, E 4.82, P 3.37, I 3.72, G 3.5, S 4.16, R 4.06, A 3.92, V 4.07
F24: A 3.89, R 5.01, D 4.44, G 4.82, K 5.12, L 4.77, H 4.81, M 4.55, T 5.13, I 4.82, E 5, Q 5, W 2.23, N 5.06
P2: W 3.67, H 2.9, Y 4.22, V 1.91, Q 3.58, G 4.47, D 5.09, M 4.07, T 3.35
Q10: Y 3.07, K 4, C 3.1, W 2.87, E 3.87, D 3.68, P 3.78, S 3.48, L 2.96, M 3.84, A 3.48, F 3.19, T 3.64, V 3.74, G 3.88
L23: Q 4.75, H 4.89, T 4.71, I 3.97, V 3.87, E 5.27, N 4.38, W 2.97, D 4.93, C 4.62, R 4.63, P 4.48, A 4.35, M 4.21, Y 4.26, S 4.6
S8: N 3.39, H 3.65, Q 3.95, R 3.57, G 3.52, V 3.73, F 2.69, K 4.15, T 3.74, M 3.33, Y 2.75, A 3.51, L 3.35, I 3.59
Q19: P 3.86, A 3.87, T 3.81, K 3.85, R 3.51, N 3.66, M 3.22, V 3.52, S 3.9, F 2.88, H 3.64, L 3.3, I 3.26
G20: Y 2.03, C 3.57, P 3.59, I 3.02, D 4.39, W 2.35, K 3.66, N 3.48, E 4.33, H 3.08, R 3.65, M 3.9, T 3.33, Q 3.79
P12: M 3.6, A 3.95, G 3.45, S 3.98, K 3.57, W 3.27, Y 3.54, C 3.77, D 3.91, Q 3.71, N 3.48, E 4.08, T 3.74, L 3.65, H 3.73, F 3.56
T5: K 3.55, M 2.23, G 2.93, P 3.25, V 3.18, F 2.32, W 1.68, C 1.9, L 2.35, R 2.71, Q 3.89, S 3.53, N 3.32, I 3.34, Y 3.17
G6: W 2.87, R 3.45, V 4.17, T 3.51, Q 3.58, K 3.23, C 2.46, A 3.53, E 4.46, P 2.25, Y 2.77, H 3.62, N 3.56, L 3.25
N21: I 3.25, K 3.77, V 3.54, C 3.65, T 4.04, F 2.62, S 3.78, P 3.99, Q 4.07, R 3.55
G22: S 3.57, V 3.73, F 2.94, K 3.96, D 4.03, N 2.91, W 2.04, C 3.16, Y 3.03, E 3.76, R 3.78, A 3.78, I 3.22, H 2.97
D11: V 3.5, R 3.29, C 3.15, I 3.1, G 3.18, Q 3.73, E 4.2, N 3.62, Y 2.94, T 3.17, L 3.37, M 3.41, A 3.66, P 3.85, K 3.85, H 3.12, S 3.58
H3: M 3.46, V 4.34, I 4.18, D 4.48, Y 3.2, E 4.58, R 3.6, G 3.39, F 4, T 4.12, C 3.1, A 3.75, P 3.32, S 3.07, L 3.37, W 3.22
I7: A 4.04, F 2.21, T 3.95, N 4.11, D 4.45, L 3.9, Y 2.64, P 4.18, S 3.86, W 1.51
D15: V 3.51, R 3.54, N 3.84, F 2.94, Q 3.44, E 4.07, L 2.8, W 2.63, G 2.94, S 3.73, K 3.64, I 2.9, A 3.53, P 3.46, M 2.9, C 2.79
Y1: G 5.44, M 5.4, R 4.63, V 5.07, F 3.49, D 5.46, C 4.29, H 4.85, I 5.14, E 5.25, W 4.43, P 5.37, N 5.28, Q 5.36
S14: T 3.71, V 4.3, G 3.74, P 4.28, D 4.2, A 3.86, F 2.73, M 3.4, K 4.23, W 3.13, Q 3.93, L 3.77, N 3.89
S16: W 2.76, Q 3.8, L 2.74, V 3.69, T 3.73, K 3.61, G 3.71, A 3.71, D 4.24, R 3.31, N 4.18, H 3.78
